# Laboratory results: article PMC3817844 (Angewandte Chemie (International ed. in English), 2013)
# Molecular target: Glu92 (UniProt position 93, EAFRVEDKDGN)
# Assay: kinetics
# Conditions: Ca2+-bound (active) protein; the protein is inactive without Ca2+
row,Molecule,pKa
1,"CaM F92E 5R (round 5 variant), affinity tag removed (Gallus gallus; F92E;M144R;H107I;L112R;I85L;A128T)",6.47±0.03
2,"CaM F92E 5R (round 5 variant), with affinity tag (Gallus gallus; F92E;M144R;H107I;L112R;I85L;A128T)",6.60±0.02
3,CaM F92E (full-length calmodulin F92E) (Gallus gallus; F92E),6.98±0.05
4,CaM F92E round 1 variant (F92E/M144R) (Gallus gallus; F92E;M144R),7.21±0.06
5,"CaM F92E round 2 variant (F92E/M144R/H107I), tag removed (Gallus gallus; F92E;M144R;H107I)",6.73±0.03
6,CaM F92E round 3 variant (F92E/M144R/H107I/L112R) (Gallus gallus; F92E;M144R;H107I;L112R),6.70±0.03
7,CaM F92E round 4 variant (F92E/M144R/H107I/L112R/I85L) (Gallus gallus; F92E;M144R;H107I;L112R;I85L),6.93±0.03
8,CaM F92E round 6 variant (Gallus gallus; F92E;M144R;H107I;L112R;I85L;A128T;M124L),6.67±0.01

# Same assay, conditions: Ca2+-bound (active) protein; the protein is inactive without Ca2+; cited from earlier work
row,Molecule,pKa
1,AlleyCat (calmodulin C-terminal domain F92E) (Gallus gallus; F92E),6.9±0.1

# Molecular target: Glu92 (UniProt position 93, EQFRVEDKDGN)
# Assay: kinetics
# Conditions: Ca2+-bound (active) protein; the protein is inactive without Ca2+
row,Molecule,pKa
1,AlleyCat7 (calmodulin C-terminal domain with round 7 mutations) (Gallus gallus; F92E;M144R;H107I;L112R;I85L;A128T;M124L;A88Q),6.39±0.02
2,"CaM F92E round 7 variant, tag removed (Gallus gallus; F92E;M144R;H107I;L112R;I85L;A128T;M124L;A88Q)",6.43±0.02

# Molecular target: AlleyCat; AlleyCat7 (Gallus gallus, UniProt P62149, A129T/A89Q/F93E/H108I/I86L/L113R/M125L/M145R)
# Assay: inhibition of Kemp elimination
# Assay type: biochemical
# Conditions: not given
row,Molecule,Ki [µM]
1,"O=[N+]([O-])c1ccc2[nH]nnc2c1 [5-NBT, 5-nitro-benzotriazole]",18
